In the supplement of paper PMC10724198:

Legend:
Saccharomyces cerevisiae [1] = assay: protein stability index of tFT-peptide fusion in wild type (PSI (0-1 scale)); higher = more stable (slower turnover); settings: genetic background: wild type
Saccharomyces cerevisiae [2] = assay: protein stability index of tFT-peptide fusion in deletion strain of DOA10 (PSI (0-1 scale)); higher = more stable (slower turnover)
Experimental: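 MPS profiling in S. cerevisiae of two library types built from selected 12-aa C-degron peptides (IN1, IN2, LN1, LN3, VN2, R1-R5, W1-W3, Atg1 and Rpa12 C-termini): saturation mutagenesis libraries and C-terminal +1 capping libraries (13 aa). Each peptide is fused to the C-terminus of a sfGFP-mCherry timer, after a GGGS linker. Cells are FACS-sorted into 8 mCherry/sfGFP bins and sequenced. PSI runs from 0 (unstable) to 1 (stable), measured once in wild type and in the das1Δ or doa10Δ background.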
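Wherever protein stability index of tFT-peptide fusion in deletion strain of DOA10 is given: PSI per variant is the weighted mean of its sequencing read distribution over the sorted stability bins, counting only variants with over 10 reads summed across bins.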
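Wherever protein stability index of tFT-peptide fusion in wild type is given: PSI derived as read-weighted mean over the 8 sorting bins, only variants exceeding 10 total reads kept, mCherry placed adjacent to the peptide and sfGFP distal.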

| Sequence | protein stability index (Saccharomyces cerevisiae [1]) | protein stability index (Saccharomyces cerevisiae [2]) |
| --- | --- | --- |
| CLVSLSILLFFR | 0.183 | 0.286 |
| SLVSLPILLFFR | 0.0746 | 0.619 |
| GLYMCSVGCRFR | 0.625 | 0.654 |
| RSLRVLLPLAFR | 0.37 | 0.652 |
| RSLRVLMPLYFR | 0.254 | 0.697 |
| GLYMCSMGCWFR | 0.321 | 0.676 |
| GLAMCSVGCWFR | 0.268 | 0.661 |
| CLVSLPILLFFQ | 0.313 | 0.53 |
| AITLPMCPLQLR | 0.608 | 0.68 |
| GLYMCSVGCAFR | 0.614 | 0.629 |
| CLVSWPILLFFR | 0.0554 | 0.595 |
| GLYMCSVACWFR | 0.228 | 0.441 |
| GLYMCSVGCWFG | 0.456 | 0.478 |
| GLYMCSLGCWFR | 0.283 | 0.658 |
| RVTRLDAIYFRK | 0.673 | 0.711 |
| GLYMCSVGCYFR | 0.425 | 0.638 |
| RETRLDAIYFRI | 0.545 | 0.667 |
| GLYMCSVGCEFR | 0.594 | 0.625 |
| CLVSVPILLFFR | 0.064 | 0.565 |

| Sequence | protein stability index (Saccharomyces cerevisiae [1]) | protein stability index (Saccharomyces cerevisiae [2]) |
| --- | --- | --- |
| AITLPMCPLLLM | 0.505 | 0.545 |
| CLVSLPILLFFRW | 0.0557 | 0.473 |
| RVTRLDAIYFRG | 0.664 | 0.701 |
| RVTRLVAIYFRI | 0.19 | 0.394 |
| CLVSLPILLFFRK | 0.115 | 0.57 |
| GSYMCSVGCWFR | 0.411 | 0.678 |
| RSLRVLCPLYFR | 0.305 | 0.652 |
| CLVSLPILLFWR | 0.0447 | 0.638 |
| CLVSLPILIFFR | 0.0649 | 0.53 |
| GLYMCSVGCWGR | 0.625 | 0.659 |
| CLVSLPILLFFD | 0.433 | 0.583 |
| GLYMCSVGCWFRP | 0.287 | 0.62 |
| RWTRLDAIYFRI | 0.337 | 0.528 |
| RVTVLDAIYFRI | 0.516 | 0.651 |
| AITLPMCPLLLK | 0.269 | 0.653 |
| RSLRPLLPLYFR | 0.316 | 0.688 |
| AITLPMCPKLLR | 0.643 | 0.671 |
| AIKLPMCPLLLR | 0.276 | 0.652 |
| CLVSLPILLFFV | 0.206 | 0.385 |

| Sequence | protein stability index (Saccharomyces cerevisiae [1]) | protein stability index (Saccharomyces cerevisiae [2]) |
| --- | --- | --- |
| AITDPMCPLLLR | 0.603 | 0.693 |
| CLVSLPILSFFR | 0.581 | 0.658 |
| RSLRVLLPLYFRR | 0.315 | 0.675 |
| GLYMCSVGCWFRG | 0.334 | 0.635 |
| GLYMCSVGCWFRQ | 0.113 | 0.182 |
| CITLPMCPLLLR | 0.118 | 0.635 |
| RSLRVLLPLYFW | 0.339 | 0.589 |
| RVTRLDAITFRI | 0.678 | 0.72 |
| AITAPMCPLLLR | 0.472 | 0.66 |
| AITLPMCPLILR | 0.238 | 0.656 |
| CLVSLPILLFKR | 0.413 | 0.665 |
| GLYMCSVGMWFR | 0.307 | 0.577 |
| RVTPLDAIYFRI | 0.547 | 0.675 |
| CLVSLPIYLFFR | 0.0617 | 0.607 |
| RSLRVLLPLYYR | 0.375 | 0.657 |
| GLYMCSVGCWFP | 0.607 | 0.636 |
| RSTRVLLPLYFR | 0.292 | 0.684 |
| RSLRVLFPLYFR | 0.196 | 0.684 |
| RSLRVLLPLYCR | 0.266 | 0.457 |
